± gives the standard deviation of the averaged measurements.
system: ATP; assay: switch fluorescence ratio, 500 uM ATP over buffer (Cy3 cluster intensity, sum of 5 cycles each) (fold (ratio)); higher = stronger signal-on switching upon ATP binding; sequences stand for … in TCGTCGGCAGCGTCAGATGTGTATAAGAGACAGTTTTTTTTTTTTTTTTTTTTTTTTT…TC; conditions: aptamer strand: ATP DNA aptamer (quencher-CACCTGGGGGAGTATTGCGGAGGAAGG + anchor), 100 nM annealed; ATP concentration: 500 uM
Outline: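 For every switch-domain sequence, the fluorescence ratio is the mean of per-cluster values, each being summed target-cycle Cy3 intensity over summed buffer-cycle Cy3 intensity. Clusters outside 100-1000 RFU were excluded. On a modified Illumina MiSeq flow-cell, the Cy3-labelled switching-strand clusters were annealed to 100 nM quencher-labelled ATP aptamer, imaged in selection buffer and then after 15 min with 500 uM ATP at 22 °C. Five such cycles were run, with NaOH stripping and re-annealing between them.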
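Note: ATP exposure 15 min at 22 °C before imaging.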

Sequence	switch fluorescence ratio
GGTTAAGTCT	0.946 ± 0.053
AGCGATTCTG	1.02 ± 0.032
TTATGGTGGG	0.981 ± 0.015
GAAGAAAGCG	1.007 ± 0.0094
AGAGTCATTA	0.995 ± 0.012
ATATGCTATC	1.02 ± 0.014
GTTGTAGACA	0.9847 ± 0.0048
TGAAGTTAGG	1.01 ± 0.021
CCCTTGATAC	2.24 ± 0.1
GTATAAGGGT	1.01 ± 0.018
ATATTCCACA	0.9984 ± 0.0093
GTTTTTTGCC	1 ± 0.034
GGTGTTTTAT	1.02 ± 0.015
GGGTACTCGC	1.03 ± 0.065
GAAGACGGGA	1.01 ± 0.045
TAAGCTCGTG	0.97 ± 0.019
CCATATTCTC	1.016 ± 0.0072
GGTGCCGGTT	0.997 ± 0.054
AATGGGGGGC	1 ± 0.041
TTCTCAAAGA	1.07 ± 0.1
ATGCTATACT	1.6 ± 0.022
CGGAGTTAAG	1.07 ± 0.044
AATTTAAGGC	0.985 ± 0.078

Sequence	switch fluorescence ratio
AGTAGTGAGG	0.979 ± 0.017
AAAGTTACGT	1.01 ± 0.044
GGGTATCTCG	0.9938 ± 0.0063
GATCATGGGA	1.03 ± 0.093
TGAGCAGGTT	1.017 ± 0.0094
AGGGGGACGT	0.998 ± 0.024
ATCGGGGGGG	1 ± 0.035
TTTTTATTCG	0.994 ± 0.019
GTTGCAATTT	1.16 ± 0.13
GGGTTGTGTT	0.978 ± 0.013
TTAGATGCGG	1.013 ± 0.01
TACAAGTCGT	0.98 ± 0.012
CAGCGTGGCA	1 ± 0.021
TGACGTTCGG	0.978 ± 0.029
ATTATGGCTG	1.07 ± 0.011
TAATTTGAAA	1.03 ± 0.07
GGTTCAAGGG	0.984 ± 0.02
TCAGGAGTAA	1.82 ± 0.12
CATCTAAAGA	1.005 ± 0.0067
TTTTAAGTCG	1.05 ± 0.014
ACTATAAGAA	1.03 ± 0.014
TTGTGAATGT	0.975 ± 0.016
TTTTTTCTTT	1.01 ± 0.033

Sequence	switch fluorescence ratio
AAGTGGTCCT	0.996 ± 0.018
TATGACTTTG	1.03 ± 0.071
TTTTACCTAT	1.04 ± 0.021
ATGGGGTCGA	1 ± 0.051
TTCGTGGGGA	0.995 ± 0.025
TCTCGTTGGG	1.012 ± 0.005
ACGGTTGAGC	1 ± 0.021
CCTCTTTTTG	1.02 ± 0.011
GCATCCTGGA	0.969 ± 0.058
TAAGCGGTTG	0.989 ± 0.016
CGATTTTCAT	0.988 ± 0.013
GCTCTTAAGG	0.982 ± 0.051
TCTCGGGGTG	1.04 ± 0.089
AGCGGCTAAT	0.981 ± 0.011
GGTTCGTTGG	0.993 ± 0.013
CTAATAATAT	1.01 ± 0.025
CATGGGGGCG	1.01 ± 0.078
TTCGGATTCG	0.968 ± 0.03
GCTTGCAAGG	0.991 ± 0.017
TCTATGCGGG	1.017 ± 0.0013
TAGCCGGGGT	1.04 ± 0.054
AACTATTATG	1.003 ± 0.01
ATAACAAACT	1.05 ± 0.012

Sequence	switch fluorescence ratio
TTGCATCTTG	1.01 ± 0.033
TGGACTTGGA	0.9869 ± 0.0031
ATATATCTAG	0.998 ± 0.029
CAGTTTTGAG	0.9917 ± 0.0014
TGAAGTAAGG	1.03 ± 0.029
TCTAACTTTT	1.01 ± 0.033
TATGTGAAAA	0.9747 ± 0.006
GGGAAAGGCA	1.015 ± 0.0076
ACAGCAGTGT	1.03 ± 0.035
TCAACGCCCC	1.28 ± 0.055
AGCACTCTAT	1.04 ± 0.024
CAATTGGGTT	0.985 ± 0.025
TTTCTGTCGG	1.02 ± 0.032
GGGGGGTGTC	1.01 ± 0.038
GAGGAGAGGT	1 ± 0.015
AAACCGATGG	1.046 ± 0.0085
TCGAAGTGTT	0.989 ± 0.027
TTTGTGTGGA	1.03 ± 0.0059
CCGATTGTGT	1.11 ± 0.017
TGCAATTTGT	1 ± 0.078
GGGGATTGGG	0.987 ± 0.028
AGAAGAATTT	1.02 ± 0.016
AAGGGGTCTC	0.998 ± 0.021

Sequence	switch fluorescence ratio
TTTACGTTTG	0.9919 ± 0.0017
ACAGTTATTG	1.016 ± 0.0077
CGTTTGGGCC	1.01 ± 0.069
CGATAGTATA	1.007 ± 0.0082
TATCGATGTT	1.005 ± 0.0099
TATGTTCCAA	1.01 ± 0.03
GGTGATACAG	1.003 ± 0.0051
GCTGTTTGAT	0.959 ± 0.04
TCTGGGAATG	0.983 ± 0.01
ACCACCGTTG	1.113 ± 0.0039
AGAAGGCTAG	1.02 ± 0.05
TTCATAACAA	1.02 ± 0.022
CGTAGGGTTT	0.976 ± 0.055
TAAGGTGTGA	1.02 ± 0.038
ATGTTTGGAC	1.01 ± 0.02
TAAGCGGGGT	1.012 ± 0.008
AAGTATGCTT	1.01 ± 0.021
TTTTGCGAAG	1.03 ± 0.027
TTTTTGAAT	1.01 ± 0.021
GGTTTGCAGC	0.975 ± 0.021
CATTGTGCCT	1.04 ± 0.018
GGGAGTGTGG	1.001 ± 0.0062
GTACGGGGTT	0.993 ± 0.023

Sequence	switch fluorescence ratio
AGAAACCGTA	1.1 ± 0.031
CTTTGTTACG	1.048 ± 0.0015
GGGTAAATCG	0.981 ± 0.068
TTTAATATGC	1.14 ± 0.23
TATACGTCTA	1.07 ± 0.043
ACTCGTTGTT	1.02 ± 0.024
GTTAGGTATT	0.93 ± 0.023
TTTAAGGGA	0.9897 ± 0.0045
TTAATTTGAG	0.986 ± 0.03
CTGGGGTTGT	1.02 ± 0.012
TTTACCGAAT	1.05 ± 0.017
CTGGGGGGTC	1.24 ± 0.41
ATGAGGCCTT	1.01 ± 0.019
TTTTCCGGCC	1.72 ± 0.54
TTGGGGGGGT	1 ± 0.03
AGGGGAGGAC	1.03 ± 0.02
TTGTGGTGGG	1.03 ± 0.069
TTTGAGGGA	0.9945 ± 0.0052
CGAAATGGGT	1.03 ± 0.025
ATTAGGTGGG	1.05 ± 0.068
TGGTTTGGGG	0.974 ± 0.021
TTCGGCGACG	1.0016 ± 0.00078
CTATGCTCAC	1.45 ± 0.041

Sequence	switch fluorescence ratio
TACGCGGTTG	1.07 ± 0.044
AAATTGGGGG	1.02 ± 0.075
CCAGCTTTTT	0.957 ± 0.054
GGGGGTAAGT	1.01 ± 0.02
GTGTAATTGG	1.018 ± 0.0058
TGGCACGGGC	1.02 ± 0.047
CGGGGTACGT	0.985 ± 0.027
CGGGTCGGCA	1.03 ± 0.017
AAGGGCATTT	1.04 ± 0.028
TTTTCGTCAA	2.86 ± 2.4
GTAGTTCTGC	1 ± 0.018
GACGTTTATG	0.949 ± 0.099
CGAGCCGAGA	1.003 ± 0.0095
CGTGTGGTAT	1.01 ± 0.042
ATATTGAGGG	1.01 ± 0.00033
CTCTGAGAGG	0.9719 ± 0.0043
CGTTCTGAAT	0.9901 ± 0.0086
TGTTGATA	0.968 ± 0.016
GACATCCCCT	1.04 ± 0.047

— the supplement of paper PMC10126150
